# From PMC7793260, “MreC and MreD balance the interaction between the elongasome proteins PBP2 and RodA” (PLoS Genetics, 2020)
# T1: mKO-PBP2^L61R (E. coli, UniProt P0AD65 1-633, L61R)
# T1 construct: PBP2 of E. coli with L61R (hyperactive variant); made from pWA004 by mutagenesis PCR; also called hyperactive PBP2^L61R; source: E. coli LMC500, expressed from plasmid (15 uM IPTG), in fixed cells; not shown: mKO, N-terminal, kept
# T1 sequence (looked up): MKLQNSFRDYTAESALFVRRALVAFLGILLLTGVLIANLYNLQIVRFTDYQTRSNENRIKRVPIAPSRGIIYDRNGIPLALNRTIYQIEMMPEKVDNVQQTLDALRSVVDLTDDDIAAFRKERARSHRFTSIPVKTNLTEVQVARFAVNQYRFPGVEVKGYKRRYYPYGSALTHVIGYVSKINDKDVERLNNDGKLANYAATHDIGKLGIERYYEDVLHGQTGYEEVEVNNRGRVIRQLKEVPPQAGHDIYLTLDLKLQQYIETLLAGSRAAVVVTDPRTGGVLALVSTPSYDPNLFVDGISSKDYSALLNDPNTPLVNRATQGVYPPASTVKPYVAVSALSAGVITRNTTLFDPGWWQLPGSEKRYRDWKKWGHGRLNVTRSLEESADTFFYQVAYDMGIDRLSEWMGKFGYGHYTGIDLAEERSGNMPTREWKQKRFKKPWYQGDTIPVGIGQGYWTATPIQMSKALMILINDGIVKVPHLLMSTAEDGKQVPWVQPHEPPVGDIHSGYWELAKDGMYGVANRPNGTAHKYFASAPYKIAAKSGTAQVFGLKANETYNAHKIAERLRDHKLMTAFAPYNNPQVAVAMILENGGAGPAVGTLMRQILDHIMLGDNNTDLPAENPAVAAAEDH
# T2: mKO-PBP2^S330C (E. coli, UniProt P0AD65 1-633, S330C)
# T2 construct: made from pWA004 by mutagenesis PCR; source: E. coli LMC500, expressed from plasmid (15 uM IPTG), in fixed cells; not shown: mKO, N-terminal, kept
# T2 sequence (looked up): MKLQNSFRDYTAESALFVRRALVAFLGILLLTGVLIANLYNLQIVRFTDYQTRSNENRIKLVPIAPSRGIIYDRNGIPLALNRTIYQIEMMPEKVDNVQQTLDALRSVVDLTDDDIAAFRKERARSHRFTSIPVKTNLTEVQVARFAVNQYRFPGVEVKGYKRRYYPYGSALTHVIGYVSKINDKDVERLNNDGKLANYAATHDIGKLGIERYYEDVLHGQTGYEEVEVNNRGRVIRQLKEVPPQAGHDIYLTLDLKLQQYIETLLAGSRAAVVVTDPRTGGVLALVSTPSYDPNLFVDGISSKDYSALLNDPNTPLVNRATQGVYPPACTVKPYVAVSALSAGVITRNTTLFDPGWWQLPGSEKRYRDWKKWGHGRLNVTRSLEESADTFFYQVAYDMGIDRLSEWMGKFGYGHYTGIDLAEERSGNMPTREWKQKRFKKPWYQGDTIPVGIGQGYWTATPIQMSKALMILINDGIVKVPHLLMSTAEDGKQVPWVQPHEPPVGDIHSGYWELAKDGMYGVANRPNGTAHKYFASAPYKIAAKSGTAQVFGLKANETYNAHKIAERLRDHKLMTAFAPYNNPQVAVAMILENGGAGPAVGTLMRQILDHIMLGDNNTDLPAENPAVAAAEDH
# T3: PBP2 (wild type), fused to mKO or to mCherry (E. coli, UniProt P0AD65 1-633)
# T3 construct: PBP2, peptidoglycan transpeptidase of the E. coli elongasome, wild type; mKO-PBP2 in all others; also called mKO-PBP2^WT; mKO-PBP2; source: E. coli LMC500, expressed from plasmid (15 uM IPTG), in fixed cells; not shown: mKO (donor construct, pWA004) or mCherry (acceptor construct), N-terminal, kept
# T3 sequence (looked up): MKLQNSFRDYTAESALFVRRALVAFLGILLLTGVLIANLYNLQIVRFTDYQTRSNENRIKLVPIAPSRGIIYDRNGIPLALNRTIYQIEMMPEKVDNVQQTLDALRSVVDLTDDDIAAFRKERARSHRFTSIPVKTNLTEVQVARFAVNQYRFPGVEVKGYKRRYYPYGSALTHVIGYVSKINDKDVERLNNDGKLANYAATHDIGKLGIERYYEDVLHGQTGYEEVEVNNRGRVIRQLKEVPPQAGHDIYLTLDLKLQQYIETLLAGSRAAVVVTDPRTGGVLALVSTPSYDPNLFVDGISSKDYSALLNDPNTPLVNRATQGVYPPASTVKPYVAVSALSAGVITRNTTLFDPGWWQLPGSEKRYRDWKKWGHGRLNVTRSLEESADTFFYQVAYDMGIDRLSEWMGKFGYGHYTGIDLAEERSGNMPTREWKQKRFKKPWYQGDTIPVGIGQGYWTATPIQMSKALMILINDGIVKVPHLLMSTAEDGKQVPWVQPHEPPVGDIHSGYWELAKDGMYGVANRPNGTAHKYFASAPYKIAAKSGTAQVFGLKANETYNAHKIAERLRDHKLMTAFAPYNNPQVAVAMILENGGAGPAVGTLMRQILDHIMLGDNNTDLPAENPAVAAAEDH
# Assays:
# Assay in all cases: FRET or BRET; as the two-plasmid FRET, cells treated with mecillinam (2 mg/L) for two mass doublings
# Conditions in all cases: partners not purified
# mKO-PBP2^L61R = target: T1, mKO-PBP2^L61R
# mKO-PBP2^S330C = target: T2, mKO-PBP2^S330C
# [1] = target: T3, PBP2 (wild type), fused to mKO or to …
binder,measurement,setting,value
"RodA (wild type), fused to mCherry or to mKO (enzyme, E. coli, UniProt P0ABG7 1-370, looked up, RodA, peptidoglycan glycosyltransferase of the E. coli elongasome; wild-type rodA gene; mCh-RodA in all others; also called mCh-RodA; mKO-RodA; source: E. coli LMC500, expressed from plasmid (15 uM IPTG), in fixed cells; not shown: mCherry (acceptor construct, pSAV047-RodA) or mKO (donor construct, pXL56), N-terminal, kept) MTDNPNKKTFWDKVHLDPTMLLILLALLVYSALVIWSASGQDIGMMERKIGQIAMGLVIMVVMAQIPPRVYEGWAPYLYIICIILLVAVDAFGAISKGAQRWLDLGIVRFQPSEIAKIAVPLMVARFINRDVCPPSLKNTGIALVLIFMPTLLVAAQPDLGTSILVALSGLFVLFLSGLSWRLIGVAVVLVAAFIPILWFFLMHDYQRQRVMMLLDPESDPLGAGYHIIQSKIAIGSGGLRGKGWLHGTQSQLEFLPERHTDFIFAVLAEELGLVGILILLALYILLIMRGLWIAARAQTTFGRVMAGGLMLILFVYVFVNIGMVSGILPVVGVPLPLVSYGGSALIVLMAGFGIVMSIHTHRKMLSKSV",EfA (acceptor FRET efficiency),mKO-PBP2^L61R,6.3%
same,EfA (acceptor FRET efficiency),mKO-PBP2^S330C,6.6%
same,EfA (acceptor FRET efficiency),[1],7.9%
